Results taken from CN115969997A.

Biological target: CLDN18.2 (亲和力检测, Table 2 ka/kd/KD)
Assay: affinity measurement, method not described

IMAB362 (antibody)
Kd: 2.89 nM
